# Source: publication doi:10.1101/772293
# Read-outs that look alike come from different tables or passages of the source.
# Tests used:
# angiotensin AT1 receptor [1] = molecular target: angiotensin AT1 receptor (UniProt P30556); experiment: genetically encoded conformation-sensitive fluorescent biosensor
# angiotensin AT1 receptor [2] = molecular target: angiotensin AT1 receptor (UniProt P30556); experiment: as above; remark: listed apart in the source
# Sequence of UniProt P30556 (P30556 whole entry): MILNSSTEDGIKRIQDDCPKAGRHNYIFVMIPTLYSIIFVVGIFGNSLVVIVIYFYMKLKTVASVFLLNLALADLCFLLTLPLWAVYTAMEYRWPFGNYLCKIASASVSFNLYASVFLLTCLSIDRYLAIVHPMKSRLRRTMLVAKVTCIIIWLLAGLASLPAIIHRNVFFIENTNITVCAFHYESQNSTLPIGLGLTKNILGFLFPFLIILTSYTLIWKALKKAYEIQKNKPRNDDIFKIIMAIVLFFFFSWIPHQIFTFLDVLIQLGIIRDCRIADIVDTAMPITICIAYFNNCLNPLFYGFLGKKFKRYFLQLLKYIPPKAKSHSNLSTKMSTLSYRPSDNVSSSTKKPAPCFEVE
substance,measurement,setting,value
β-arrestin2 sensor (β-arrestin2 inserted into the seventh stave of mNeonGreen) (from UniProt P32121 1-409),t1/2 of arrestin recruitment (0.693/kobs) with 32 uM AngII,angiotensin AT1 receptor [1],44 s
same,t1/2 of arrestin recruitment (0.693/kobs) with 32 uM AngII,angiotensin AT1 receptor [2],45 s
same,t1/2 of arrestin recruitment (0.693/kobs) with 32 uM SII,angiotensin AT1 receptor [2],84
